Results taken from publication PMC7020240.

Molecular target: C-FLuc-MESA MEC construct (wild type) (P. falciparum)
Test: split reporter

For “N-FLuc-ANK1 fragment 3 (amino acids 823 - 1375) (domain or fragment)”, the fold increase of relative luciferase activity was 200 fold.
